Assay results taken from patent US20100273710 (published 2010).
Like-named read-outs stand apart in the source and are kept apart here.

Experiments:
NOP receptor [1] = target: T1, NOP receptor (Homo sapiens, UniProt P41146); test: competition, [3H]N/OFQ
NOP receptor [2] = target: T1, NOP receptor; test: competition, [3H]N/OFQ; remark: listed apart in the source
MOP receptor = MOP receptor (Homo sapiens, UniProt P35372); test: competition, [3H]-diprenorphine
DOP receptor = target: T2, DOP receptor (Homo sapiens, UniProt P41143); test: competition, [3H]-diprenorphine
T2 chain: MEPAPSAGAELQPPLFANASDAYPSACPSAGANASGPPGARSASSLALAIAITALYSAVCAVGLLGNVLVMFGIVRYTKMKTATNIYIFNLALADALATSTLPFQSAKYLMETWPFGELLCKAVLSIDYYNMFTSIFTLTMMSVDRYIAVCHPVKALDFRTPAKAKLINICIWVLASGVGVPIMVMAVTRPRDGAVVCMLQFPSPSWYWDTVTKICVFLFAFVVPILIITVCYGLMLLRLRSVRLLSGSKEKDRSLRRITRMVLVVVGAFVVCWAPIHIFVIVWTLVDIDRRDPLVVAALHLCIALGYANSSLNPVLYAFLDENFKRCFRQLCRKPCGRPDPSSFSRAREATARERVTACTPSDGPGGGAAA

T1 sequence (P41146 whole entry): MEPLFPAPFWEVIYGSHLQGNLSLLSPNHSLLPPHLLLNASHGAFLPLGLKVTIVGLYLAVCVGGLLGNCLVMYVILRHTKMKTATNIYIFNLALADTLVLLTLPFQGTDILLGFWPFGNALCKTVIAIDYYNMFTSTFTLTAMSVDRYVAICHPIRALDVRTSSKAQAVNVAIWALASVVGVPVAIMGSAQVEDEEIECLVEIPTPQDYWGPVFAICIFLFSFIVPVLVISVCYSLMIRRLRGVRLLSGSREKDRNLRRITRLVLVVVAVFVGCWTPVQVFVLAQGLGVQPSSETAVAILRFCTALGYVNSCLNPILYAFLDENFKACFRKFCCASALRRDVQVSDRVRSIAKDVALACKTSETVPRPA
Sequence of MOP receptor (P35372 whole entry): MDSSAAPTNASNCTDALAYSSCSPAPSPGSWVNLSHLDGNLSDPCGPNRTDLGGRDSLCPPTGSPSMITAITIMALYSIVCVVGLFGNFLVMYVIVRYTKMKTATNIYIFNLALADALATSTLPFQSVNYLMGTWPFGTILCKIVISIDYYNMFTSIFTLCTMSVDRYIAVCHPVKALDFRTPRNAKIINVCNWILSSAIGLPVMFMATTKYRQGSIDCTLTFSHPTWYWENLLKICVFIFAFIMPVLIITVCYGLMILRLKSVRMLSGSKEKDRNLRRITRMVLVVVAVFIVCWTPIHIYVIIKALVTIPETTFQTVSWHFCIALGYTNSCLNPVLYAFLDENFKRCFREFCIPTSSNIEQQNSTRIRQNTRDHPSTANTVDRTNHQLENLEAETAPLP

Binder: XGGFTGXRKSARKRKNQ ([Nphe1,Aib7,Arg14,Lys15]N/OFQ-NH2; X1 = Nphe, X7 = Aib, C-terminal amide) [UFP-111]
- Ki (NOP receptor [1]): 0.178 nM
- Ki (NOP receptor [2]): 17.8 nM
- Ki (MOP receptor): > 10000 nM
- Ki (DOP receptor): > 10000 nM
